Where a chain is given by its changes, count along the chain named.

In general, Kd refers to the constant that tells how readily two partners part at equilibrium. A lower Kd goes with a tighter complex.

Assay in all cases: SPR Biacore, biotinylated receptor on SA sensor, pH 7.4, 15 C
Background: SPR reads the build-up and loss of mass on a sensor chip optically.

One test has as its target T1, CTLA4 Fc bIgG1aWinSS (canine; bovine, UniProt Q9XSI1 36-161, limits assumed).
T1 construct: No linker
T1 sequence: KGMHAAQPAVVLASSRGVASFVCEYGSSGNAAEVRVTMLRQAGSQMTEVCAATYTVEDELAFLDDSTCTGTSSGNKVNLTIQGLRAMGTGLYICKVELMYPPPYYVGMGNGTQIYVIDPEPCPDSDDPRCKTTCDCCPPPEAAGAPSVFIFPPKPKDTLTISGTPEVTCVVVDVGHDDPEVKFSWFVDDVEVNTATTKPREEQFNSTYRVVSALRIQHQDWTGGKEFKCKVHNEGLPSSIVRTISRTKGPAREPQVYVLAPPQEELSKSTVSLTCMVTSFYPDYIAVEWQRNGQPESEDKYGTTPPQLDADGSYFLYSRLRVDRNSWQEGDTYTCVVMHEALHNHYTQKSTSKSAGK
The procedure: (§1) A Biacore SPR binding assay was designed to test the affinity of bovine IgG subclasses to bFcgR1, bFcgR2 and bFcgR3. All reported KD's were measured by Biacore (Cytiva, Marlborough, MA, USA) using series S SA sensor. Biotinylated-bovine FcgR1, R2 and R3 were captured on the sensor surface using a modified SA capture method to reach the desired surface density. 10 mM HEPES, 150 mM NaCl, 3 mM EDTA, 0.05% v/v surfactant P20, pH7.4 buffer was used as the running and titration buffer. Various concentrations of bovine CTLA4-Fc fusions or mAbs were titrated and flowed over the receptor surface and affinities were determined using Biacore T200 Evaluation software (Cytiva, Marlborough, MA, USA) with 1:1 binding model. The method of double referencing has been applied where the reference flow cell was subtracted from the flow cell containing immobilized receptors and blank runs containing buffer only were subtracted out from all runs. Flow cells were regenerated using 10 mM Glycine pH1.5. Runs were performed at 15° C.
The ability to knock out binding to bovine Fc gamma receptors was evaluated by comparing SPR Biacore bFcgR affinity of bIgG1a and bIgG1b wildtype Fc to the bIgG1a and bIgG1b mutations, described above. All mutations made to bIgG1 are identical for the a and b allotypes. Biacore methods for bFcgR1, R2, and R3 were performed as described in Example 1.

Another test concerns the target T2, CTLA4 Fc bIgG3aSAS (canine; bovine, UniProt Q9XSI1 36-161, limits assumed).
T2 construct: No linker
T2 sequence: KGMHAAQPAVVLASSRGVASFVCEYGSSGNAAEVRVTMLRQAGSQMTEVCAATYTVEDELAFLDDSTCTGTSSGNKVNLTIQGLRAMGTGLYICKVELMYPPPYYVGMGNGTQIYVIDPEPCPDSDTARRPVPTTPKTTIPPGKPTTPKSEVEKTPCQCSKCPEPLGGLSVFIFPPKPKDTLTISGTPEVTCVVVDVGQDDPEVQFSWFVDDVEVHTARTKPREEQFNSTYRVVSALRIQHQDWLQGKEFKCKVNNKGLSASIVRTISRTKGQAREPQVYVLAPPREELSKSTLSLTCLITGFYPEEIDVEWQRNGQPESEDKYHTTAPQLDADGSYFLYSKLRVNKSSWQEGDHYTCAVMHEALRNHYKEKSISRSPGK
The procedure: as §1
(§2) Biacore methods for bFcgR1, R2, and R3 were performed as described in Examples above. […] Although the two allotypes have different KDs for bFcgR2 and bFcgR3, both wildtype allotypes do bind. All of the mutations, bIgG3Win, bIgG3WinSAS, bIgG3SAS and bIgG3SAP for both the a and b allotypes knocked down binding to bFcgR1, bFcgR2 and bFcgR3 to negligible affinities. Thus, for knocking out receptor binding, the two allotypes compare similarly.

A further test deals with T3, CTLA4 Fc bIgG3aWin (canine; bovine, UniProt Q9XSI1 36-161, limits assumed).
T3 construct: No linker
T3 sequence: T2 sequence with P165A, L166A, G168A, S260P, S262P
The procedure: as §1, §2

The target in a further test is T4, CTLA4 Fc bIgG3aWinSAS (canine; bovine, UniProt Q9XSI1 36-161, limits assumed).
T4 construct: No linker
T4 sequence: T2 sequence with P165A, L166A, G168A
The procedure: as §1, §2

The next test addresses T5, CTLA4 Fc bIgG3a (canine; bovine, UniProt Q9XSI1 36-161, limits assumed).
T5 construct: No linker; also called bIgG3a wildtype; CTLA4 Fc bIgG3a wildtype
T5 sequence: T2 sequence with S260P, S262P
The procedure: as §1, §2

B1: recombinant bovine FcgR2 (receptor)
chain: KPDLPKAVVTIQPAWINVLREDHVTLTCQGTSFSAGNLTTWFHNGSSIHTQKQPSYSFRAGSNDSGSYRCQREQTSLSDPVHLDVISDWLLLQTPSLVFQEGEPIMLRCHSWRNQPLNKITFYQDRKSKIFSYQRTNFSIPRANLSHSGQYHCTAFIGKMLHSSQPVNITVQESSSSGPSSMTHHHHHHAGLNDIFEAQKIEWHE
modifications: biotin on the BAP tag (BirA)
notes: also called bFcgR2; bFcgRII
For the molecule B1, the values for the Kd with CTLA4 Fc bIgG1aWinSS and with CTLA4 Fc bIgG3a were 52.5 nM and 68.9 nM, respectively. Moreover, the binding result in the test with CTLA4 Fc bIgG3aSAS, with CTLA4 Fc bIgG3aWin and with CTLA4 Fc bIgG3aWinSAS was “no binding” each time.

B2: recombinant bovine FcgR3 (receptor)
chain: DTQTADPSKAVVLLDPQWNHVLTNDRVTLKCQGDYPVEDNSTKWWHNGTLISSQTPSYFIADVKVQDSGEYKCQTGLSAPSDPVKLEVHVGWLLLQVAQRVVNVGKPIRLKCHSWKKTPVAKVQYFRNGRGKKYSHGNSDFHIPEAKLEHSGSYFCRGIIGSKNESSESVQITVQAPETLQTVSSFFLPWHQHHHHHHAGLNDIFEAQKIEWHE
modifications: biotin on the BAP tag (BirA)
notes: also called bFcgR3; bFcgRIII
Turning to B2, the binding result with CTLA4 Fc bIgG3aWin is listed as “no binding”. Besides, the Kd in the test with CTLA4 Fc bIgG3a was 7170 nM.

The values are drawn from US20230416410A1 (ZOETIS SERVICES, published 2023).
